test system: Escherichia coli TOP10; assay: shrunken log2 fold change of peptide-encoding DNA abundance (4.5 h post-induction vs induction); higher = less antimicrobial activity (less host growth inhibition); conditions: time post-induction: 4.5 h; library: site-saturation at positions 5, 18, 19, 20
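Note: peptides expressed intracellularly from a pBAD plasmid library in pooled LB shake-flask culture, induced with 0.3% L-arabinose, DNA abundance read by NGS, three biological replicates, DESeq2 with apeglm shrinkage.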

Sequence	shrunken log2 fold change
RRIRHRPPRLPRPRPRPFFFPRP	0.123
RRIRTRPPRLPRPRPRPSTDPRP	0.201
RRIRWRPPRLPRPRPRPSWKPRP	-0.0536
RRIRRRPPRLPRPRPRPEGDPRP	0.956
RRIRVRPPRLPRPRPRPSRLPRP	0.599
RRIRRRPPRLPRPRPRPAPCPRP	0.884
RRIRWRPPRLPRPRPRPWICPRP	-0.137
RRIRHRPPRLPRPRPRPMIQPRP	-0.0673
RRIRVRPPRLPRPRPRPGLRPRP	0.663
RRIRNRPPRLPRPRPRPEGPPRP	0.026
RRIRLRPPRLPRPRPRPILAPRP	-0.0814
RRIRWRPPRLPRPRPRPWCNPRP	-0.0973
RRIRSRPPRLPRPRPRPKSTPRP	-0.556
RRIRARPPRLPRPRPRPGISPRP	0.337
RRIRQRPPRLPRPRPRPNCYPRP	-0.284
RRIRKRPPRLPRPRPRPLHDPRP	0.169
RRIRQRPPRLPRPRPRPNEMPRP	0.105
RRIRNRPPRLPRPRPRPNQHPRP	-0.116
RRIRLRPPRLPRPRPRPMVFPRP	0.0182
RRIRTRPPRLPRPRPRPDCMPRP	-0.137
RRIRPRPPRLPRPRPRPYTEPRP	-0.349
RRIRHRPPRLPRPRPRPQDMPRP	-0.129
RRIRDRPPRLPRPRPRPMLWPRP	0.015
RRIRERPPRLPRPRPRPCRSPRP	-0.0928
RRIRYRPPRLPRPRPRPAPAPRP	0.0272

Sequence	shrunken log2 fold change
RRIRMRPPRLPRPRPRPGNHPRP	-0.0526
RRIRCRPPRLPRPRPRPCWLPRP	-0.0409
RRIRWRPPRLPRPRPRPYLYPRP	-0.216
RRIRFRPPRLPRPRPRPRKGPRP	0.447
RRIRVRPPRLPRPRPRPAIWPRP	0.0627
RRIRLRPPRLPRPRPRPDQSPRP	0.0621
RRIRPRPPRLPRPRPRPYEMPRP	-0.281
RRIRYRPPRLPRPRPRPLPKPRP	0.116
RRIRHRPPRLPRPRPRPTSHPRP	-0.837
RRIRWRPPRLPRPRPRPWVSPRP	-0.0613
RRIRNRPPRLPRPRPRPAQCPRP	-0.0739
RRIRLRPPRLPRPRPRPALRPRP	0.178
RRIRHRPPRLPRPRPRPEAHPRP	-0.00101
RRIRFRPPRLPRPRPRPAEFPRP	1.14
RRIRERPPRLPRPRPRPSHMPRP	-0.431
RRIRPRPPRLPRPRPRPNDLPRP	-0.111
RRIRCRPPRLPRPRPRPRAYPRP	-0.35
RRIRVRPPRLPRPRPRPPMEPRP	-0.172
RRIRRRPPRLPRPRPRPLEYPRP	-0.326
RRIRARPPRLPRPRPRPGIPPRP	0.162
RRIRKRPPRLPRPRPRPVDDPRP	0.508
RRIRHRPPRLPRPRPRPVHFPRP	-0.011
RRIRARPPRLPRPRPRPQPRPRP	0.721
RRIRVRPPRLPRPRPRPGARPRP	0.198
RRIRKRPPRLPRPRPRPATTPRP	0.407

Sequence	shrunken log2 fold change
RRIRRRPPRLPRPRPRPINEPRP	-0.0486
RRIRNRPPRLPRPRPRPYLAPRP	-0.327
RRIRMRPPRLPRPRPRPVCWPRP	0.833
RRIRGRPPRLPRPRPRPVSVPRP	0.624
RRIRGRPPRLPRPRPRPHPRPRP	0.839
RRIRTRPPRLPRPRPRPRLHPRP	0.0546
RRIRTRPPRLPRPRPRPGSLPRP	-0.0994
RRIRYRPPRLPRPRPRPHGFPRP	0.0238
RRIRNRPPRLPRPRPRPYHYPRP	-0.722
RRIRKRPPRLPRPRPRPSEDPRP	-0.0464
RRIRYRPPRLPRPRPRPGVPPRP	0.241
RRIRSRPPRLPRPRPRPSSAPRP	-0.0109
RRIRERPPRLPRPRPRPCGMPRP	-0.398
RRIRTRPPRLPRPRPRPMVSPRP	-0.0669
RRIRNRPPRLPRPRPRPTHFPRP	-0.659
RRIRFRPPRLPRPRPRPDHCPRP	-0.0831
RRIRTRPPRLPRPRPRPKGAPRP	0.351
RRIRYRPPRLPRPRPRPKFYPRP	0.0354
RRIRCRPPRLPRPRPRPRSWPRP	0.417
RRIRMRPPRLPRPRPRPWGAPRP	0.698
RRIRKRPPRLPRPRPRPFHMPRP	-0.424
RRIRQRPPRLPRPRPRPYVIPRP	0.0316
RRIRLRPPRLPRPRPRPDFDPRP	-0.047
RRIRPRPPRLPRPRPRPKRVPRP	0.0499
RRIRTRPPRLPRPRPRPYAFPRP	-0.17

Sequence	shrunken log2 fold change
RRIRYRPPRLPRPRPRPTWLPRP	0.00076
RRIRRRPPRLPRPRPRPPYTPRP	0.00247
RRIRWRPPRLPRPRPRPAVKPRP	-0.197
RRIRKRPPRLPRPRPRPEGIPRP	-0.0332
RRIRYRPPRLPRPRPRPTPFPRP	-0.27
RRIRSRPPRLPRPRPRPLSFPRP	-0.24
RRIRQRPPRLPRPRPRPTPVPRP	0.286
RRIRTRPPRLPRPRPRPSVCPRP	-0.203
RRIRRRPPRLPRPRPRPCIKPRP	-0.0974
RRIRPRPPRLPRPRPRPAIYPRP	-0.017
RRIRKRPPRLPRPRPRPHRFPRP	-0.0599
RRIRPRPPRLPRPRPRPWDQPRP	-0.0786
RRIRGRPPRLPRPRPRPSPIPRP	0.411
RRIRWRPPRLPRPRPRPYFEPRP	-0.483
RRIRYRPPRLPRPRPRPIMHPRP	-0.483
RRIRGRPPRLPRPRPRPDFEPRP	0.988
RRIRNRPPRLPRPRPRPSSYPRP	-0.388
RRIRARPPRLPRPRPRPVYTPRP	-0.159
RRIRYRPPRLPRPRPRPYVWPRP	-0.389
RRIRNRPPRLPRPRPRPIQTPRP	-0.0112
RRIRGRPPRLPRPRPRPHECPRP	0.504
RRIRRRPPRLPRPRPRPINGPRP	-0.0719
RRIRRRPPRLPRPRPRPLLMPRP	0.395
RRIRARPPRLPRPRPRPIFKPRP	-0.0373
RRIRQRPPRLPRPRPRPWWTPRP	-0.01

Sequence	shrunken log2 fold change
RRIRYRPPRLPRPRPRPPKAPRP	-0.0334
RRIRSRPPRLPRPRPRPHHEPRP	-0.0237
RRIRTRPPRLPRPRPRPDILPRP	0.109
RRIRQRPPRLPRPRPRPYGEPRP	-0.0137
RRIRLRPPRLPRPRPRPYQTPRP	0.0345
RRIRGRPPRLPRPRPRPNHKPRP	-0.195
RRIRTRPPRLPRPRPRPVEQPRP	0.112
RRIRGRPPRLPRPRPRPHAWPRP	0.595
RRIRMRPPRLPRPRPRPRHCPRP	0.28
RRIRHRPPRLPRPRPRPLMCPRP	0.0994
RRIRRRPPRLPRPRPRPQMMPRP	-0.232
RRIRMRPPRLPRPRPRPHWDPRP	-0.145
RRIRARPPRLPRPRPRPINEPRP	-0.0644
RRIRIRPPRLPRPRPRPEQTPRP	0.0649
RRIRWRPPRLPRPRPRPEFAPRP	1.02
RRIRTRPPRLPRPRPRPVYKPRP	-0.188
RRIRGRPPRLPRPRPRPDPRPRP	0.716
RRIRQRPPRLPRPRPRPKDCPRP	-0.00225
RRIRRRPPRLPRPRPRPFMRPRP	0.341
RRIRDRPPRLPRPRPRPMCQPRP	0.0359
RRIRERPPRLPRPRPRPFAKPRP	-0.386
RRIRPRPPRLPRPRPRPDCSPRP	0.152
RRIRFRPPRLPRPRPRPMMIPRP	-0.018
RRIRIRPPRLPRPRPRPTPTPRP	0.387
RRIRTRPPRLPRPRPRPMLYPRP	-0.131

Sequence	shrunken log2 fold change
RRIRRRPPRLPRPRPRPECYPRP	0.368
RRIRVRPPRLPRPRPRPFKVPRP	-0.243
RRIRPRPPRLPRPRPRPHDWPRP	-0.0184
RRIRIRPPRLPRPRPRPNLCPRP	-0.0543
RRIRYRPPRLPRPRPRPDVMPRP	0.0199
RRIRARPPRLPRPRPRPQGPPRP	-0.0931
RRIRNRPPRLPRPRPRPRPMPRP	0.522
RRIRIRPPRLPRPRPRPCPFPRP	-1.38
RRIRFRPPRLPRPRPRPITKPRP	-0.0304
RRIRQRPPRLPRPRPRPFVQPRP	-0.0936
RRIRNRPPRLPRPRPRPWVAPRP	-0.0268
RRIRMRPPRLPRPRPRPLGEPRP	0.317
RRIRDRPPRLPRPRPRPTGIPRP	0.26
RRIRHRPPRLPRPRPRPLYKPRP	-0.272
RRIRQRPPRLPRPRPRPIEAPRP	-0.00454
RRIRCRPPRLPRPRPRPTAVPRP	0.393
RRIRNRPPRLPRPRPRPGHGPRP	-0.19
RRIRPRPPRLPRPRPRPSSAPRP	0.0846
RRIRCRPPRLPRPRPRPETKPRP	0.0774
RRIRTRPPRLPRPRPRPYVKPRP	-0.221
RRIRLRPPRLPRPRPRPSHGPRP	-0.0685
RRIRHRPPRLPRPRPRPCFVPRP	0.0216
RRIRSRPPRLPRPRPRPTELPRP	-0.0967
RRIRRRPPRLPRPRPRPNVEPRP	0.318
RRIRCRPPRLPRPRPRPVMRPRP	0.16

Reference: the supplement of paper PMC9112550, “Optimization of the antimicrobial peptide Bac7 by deep mutational scanning” (BMC Biology, 2022)
